According to paper PMC3943411, “Modular assembly of designer PUF proteins for specific post-transcriptional regulation of endogenous RNA”:
Positions count from the first letter of the chain named.

What was measured:
Settings in all cases: protein: recombinant; tags: His-tag (pET28a); label: 5' 6-carboxyfluorescein
PUF (S4) [1] = target: T1, PUF (S4) (human, UniProt Q14671 828-1176, C935N;N971C;H972Y;C1007N;N1043C); assay: fluorescence polarization/anisotropy; cognate; 1 nM RNA; 20 mM Tris-HCl pH 7.5, 0.5 mM EDTA, 50 mM KCl, 0.1 mg/ml BSA; temperature not stated; protein corrected for active fraction (about 30%); KD mean ± SD, n = 3
T1 sequence: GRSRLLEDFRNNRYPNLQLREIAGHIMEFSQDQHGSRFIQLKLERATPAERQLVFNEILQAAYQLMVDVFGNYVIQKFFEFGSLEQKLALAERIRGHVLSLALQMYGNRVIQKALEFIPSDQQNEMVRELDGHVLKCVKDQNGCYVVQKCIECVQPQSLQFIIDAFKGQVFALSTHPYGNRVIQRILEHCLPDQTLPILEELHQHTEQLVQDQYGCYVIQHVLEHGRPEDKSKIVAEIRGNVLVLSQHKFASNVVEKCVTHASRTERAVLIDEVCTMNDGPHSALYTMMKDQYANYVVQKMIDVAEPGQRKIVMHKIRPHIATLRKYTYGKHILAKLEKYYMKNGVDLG

PUF (S2) [2] = target: T2, PUF (S2) (human, UniProt Q14671 828-1176, S863N;N1122C); assay: as above
PUF (S2) [3] = target: T2, PUF (S2); assay: fluorescence polarization/anisotropy; noncognate; 1 nM RNA; 20 mM Tris-HCl pH 7.5, 0.5 mM EDTA, 50 mM KCl, 0.1 mg/ml BSA; temperature not stated; protein corrected for active fraction (about 30%); KD mean ± SD, n = 3
PUF (S6) [4] = target: T3, PUF (S6) (human, UniProt Q14671 828-1176, S863N;C935N;N971C;H972Y;C1007N;N1043C;N1122C); assay: as above
T3 sequence: T1 sequence with S36N, N295C

PUF (S4) [5] = target: T1, PUF (S4); assay: as above
PUF (S6) [6] = target: T3, PUF (S6); assay: fluorescence polarization/anisotropy; cognate; 1 nM RNA; 20 mM Tris-HCl pH 7.5, 0.5 mM EDTA, 50 mM KCl, 0.1 mg/ml BSA; temperature not stated; protein corrected for active fraction (about 30%); KD mean ± SD, n = 3
PUF (S8) = target: T4, PUF (S8) (human, UniProt Q14671 828-1176, S863N;N899S;Q903E;C935N;N971C;H972Y;C1007N;N1043C;S1079N;E1083Q;N1122C); assay: as above
T4 sequence: T1 sequence with S36N, N72S, Q76E, S252N, E256Q, N295C

**Q.** For CCAGAAUUGAUAUUAUUCG (ssRNA) [S4 RNA (UGAUAUUA)], which Kd (PUF (S4) [1]) is on record?
**A.** 0.59 ± 0.1 nM

**Q.** Which Kd (PUF (S2) [2]) does the source give for CCAGAAUAGUAUAUUAUUCG (ssRNA) [S2 RNA (AGUAUAUU)] here?
**A.** 0.76 ± 0.11 nM

**Q.** With CCAGAAUUGUAUAUAUUCG (ssRNA) [WT RNA (UGUAUAUA)] as the binder, how does the Kd (PUF (S2) [3]) read?
**A.** 6.29 ± 2.8 nM

**Q.** And the Kd (PUF (S6) [4])?
**A.** 89.6 ± 16.5 nM

**Q.** What about the Kd (PUF (S4) [5]) of the same binder?
**A.** 5.77 ± 1.33 nM

**Q.** With CCAGAAUAGAUAUUUUUCG (ssRNA) [S6 RNA (AGAUAUUU)] as the binder, how does the Kd (PUF (S6) [6]) read?
**A.** 6.05 ± 0.25 nM

**Q.** CCAGAAUAUAUAUGUUUCG (ssRNA) [S8 RNA (AUAUAUGU)] was tested. Which Kd (PUF (S8)) did it give?
**A.** 2.79 ± 0.69 nM
